Drawing on the NTF2 design screens of Basanta et al. (2020), this text covers protease stability score for 47 sequences.

A short description of this data set: protease stability score; higher = more stable; yeast display proteolysis, trypsin and chymotrypsin.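 Also: relative to predicted unfolded state with 0 unfolded-like and 1 meaning tenfold more protease.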
Sequence “DEERQTLEEWARELLQIHKTGDEERHKEYADPDDLLRIGDKDFHGMEHVLHALVQHWEKMGVKHLEIKRLRVINGVMHVEGVLHVGDKTHDVKLHLFIFNGRIERVEIRIE” yielded a protease stability score of 1.33.

Sequence “DEERRHFEHFFHLWEQIMVTGDEDMARMLADPNVRIQVGDKKYHGREHFAELIKHLRVERIRIHTFRLYDGRIELIIHVHGNVNGQRDEFETRSHTIKVDGVWVIHSFHID” came in with a protease stability score of 1.6.

Regarding “DEERRRAKKFLEQFVRNVETGDEELHYHLADPHMKVKIGDKEFHGMEHWIEWFHRFGFDHMEIELKDIRVQGDKAHIDGRLHVDYNGREHSTNVELVVRKVNGRWRLHELRVE”, the protease stability score was 1.28.

The sequence “DEERRRDEEDWRFLEHVWETGDFDALVNMIDPNVRIEFEGRTHHGREDASHLIKRLGVKYFEVKSQNIQGDYIIDDVEFRVGEYRTRVRIIIHKIDGKWYIHSLHIL” returned a protease stability score of 0.913.

Regarding “DEERRSSEEYVRTLHDIIRTGDEDRLVRLADPHARLEVGEFHFHGREELEHFWRKIIEHFGHDKIEVRIESVEVQGEKIVNVGKLSVNGQEREIIFIALKYNGRWITRSIHLH”, the protease stability score is 1.59.

The sequence “DEERTLVEELIQIFVEALETGDFETLSKMFDPHALFLQGDKRFVGRKDIEKWIHDLVRRLGVNHIEIDKITVQGEKAHVDTRVHIGDKTSTIHILIVKVNGRWFVEEIRYH” yielded a protease stability score of 1.17.

The sequence “DEERVKQVQKKAFEAVMKGNDDEMRKIGKPNVRYEYIDEKNEGQEAVDVVIQLVKKVGAEAKVRRTEVKGDTVRAIFVYNDGDQTVQTKVEVKYEGDKVKEARVELTDEVQKVLHKG” had a protease stability score of -0.027.

“DEESEDAKRVLDEWLHMLDTGNEERLHELADPNMRFDVNGKEIHGMEIWQKEMKRSLTHHGAEMHHRIRTIEVQGNKILVDGELIINFNGRTYLHKIHIIFQKFDGRWHVESLTIK” displayed a protease stability score of -0.052.

Sequence “DEESEKVEHFLEELFRAMETGDEDQFRKLMDPNVRASYGDKEVHGRNDILHWIREYRERVKNLKLEVHRVRVRIYNGRVEIEMDTILRINGKEHKVTLTFDVTKVNGRWFIEHVEVEVR” registered a protease stability score of 1.37.

“DEESKESHDIMRILLHIFRTGDEHKLKEMADPNTLFHIGDKEFHGREEFVHFLREVFEKIKNIKHRITDIKDVGDKIHVEVEEKVNGRHRHVELIWLVVDGKIQWYEIRIR” registered a protease stability score of 1.23.

Consider “DEESKFLTEMLEDILRALITGDEEHLQTLMDPDVRVEVGDKLFIGREQASEFWRREFEEIRIDDFRIHHLEVIDGRVHVHGRVDGTIGDKHHRREIIIHDLIVNGRIKKIRIEIH”, for which the protease stability score was determined as 1.31.

For the sequence “DEESRLIEEFIKKVTHALRTGDEHRMHHLLDPHVRFYIGDKFLIGRENMAHLIRWLIEHLGVDHTHLESSSIINGKSFLDTRMHVDGQEIEVRFIIVLFDGVVNRVHYQIE”, the protease stability score is 1.1.

“DEETEDLRRWFEALLRSTHTGDFHTLNRLIDPNVRMDVGDKRHHGREFFEHLLRRADHIKIELEDYEFQGNKVIFHGKLIIHYNGQDLEYKSSMDAEKVDGRWIVRRVYLE” had a protease stability score of 1.58.

“DEETEEERKITELSLKAYKTGDEDTLSSLIDPHARFIYNGRHHHGRETASHILRRETERLGVKHIHLKDTEIDDVNGVVDMRIHMMVHYGNKTTELIIILRITKFNGRWIIETIEVRVR” returned a protease stability score of 0.691.

The sequence “DEETEEIELAFHFFQHAYETGNEEVLMELADPDVKIDVNGRKLHGRERVWKFLIHHWHHLGIKHIHMDRIEIYGNKVVVDGEIKYGDKSDETIMYVVKVDGRWKLEMIEVK” registered a protease stability score of 1.47.

For the sequence “DEETEIEKHAMEHIFRANETGNWREILEMIDPNVKIEYGDKERHGMTIYLEILELWGITKIHLDIQSIRVINGRMDIHGRIVFNGKTHTVDLHLLKVDGRWILTEIRVR”, the protease stability score was 1.3.

Take “DEETEILKKVVKEMRKIMHTGDEHEIHRYLDPNARLDVDGREVHGREALLEFLRKFKGMTVHIDDVEDIGDKIFIDHELRFDGVTRKSEIISNKINGRWHVESVHIR”: the protease stability score was determined as 0.357.

As to “DEETEISRRALKIFLDTIHTGDPRELKENLDPSVRIIINGVHYHGRESFEHVLERVEKSAGVDRVHVELRDFRIYGDKVEVEVTNHFNGRTEIDHFILRKVNGRWYIHEVEFE”, the protease stability score is 2.18.

As to “DEETEIVERYERILVKALTTGDWRRIERLMDPNVKSVVNGREYHGMERYLELYRRIRSEIRINDLRIHKVTEVGNKIEAITVWHVEVDGRIEDLETRVFLRKIDGRWILEREEVA”, the protease stability score amounted to 0.827.

Sequence “DEETEKDKFLSEVFRHSLMTGDWESELKYADPHARTVVNGRTIHGMRESWEHLKELLERLGAKYIKIRDMDSHIQGDKVLININGELHVGDKTIETRIHLIVRKVNGQWHIEELRFDFK” displayed a protease stability score of 0.993.

On to “DEETELDERVIKLLIEALKTGDEHLKERMMDPRVRFLIDGVDLIGREWAFHIARHWRIHIHHIEHKSISRQGDYLRVNGKEDGVEEFDGRRVEKEVSSHRLILKIDGRWVLTHVELR”, for which the protease stability score was 1.28.

In turn, “DEETELTERAIEESKHNMETGDEDRLIELIDPNVKVEIGDKTFHGWEELMRWWHELGIKHVHLEFHDVKHFNGRIEVDGRLHIDVNGRTILLRVELYFQKINGQWFKESIHIK” registered a protease stability score of 1.67.

“DEETEWLERLVRVILHALDTGDEDEMNQNADPHTRVRVGDKEYHGRELFLDVFRERVHRLGIDHSNLREFDIQGDFFHLDTRLQVGDKFLEVNLIFHVINGRITIVRIDYR” had a protease stability score of 1.15.

For “DEETKELEEIMKFYISAFRTGDWRLIEELADPNVRLNVDGREFHGREQFLKHFREELEHLGIDHVHVDHIDIQGEKLIIRLTIHVDGREIHNILILIIVNGRLHEVKWIRV”, the protease stability score was 1.58.

Consider “DEETKETIELMEKFRQDEETGDWRSLHRMADPHTKLVVDGREYHGMEHATTYLVEFIEHFGVKHFHIEDSHVVDGRIVLHTRVEVGDKSREIRIVALKINGVWLMQSIEIG”, for which the protease stability score was 0.102.

In turn, “DEETKFLLDIFRLVLELFMTGDEDTFSRLFDPNVRNEVNGVEAIGWHQVRELIKEILKEIRIEHIHIHDVRAVGDKVHADTRTDGIINGKRQRRETHVHLETVNGRLKSIWLQIE” showed a protease stability score of 1.13.

On to “DEETKIIEHILEHWLRLIQTGDFHELFRLVDPNVRIDINGVEYHGREEMIKFWKEEVDKLGVDRIHTDLNRNEYQGDKIILHQEVRINGRHIDIHVHAEKVDGVWILRILKRD”, for which the protease stability score was 1.57.

The sequence “DEETKKLRKFMEQFIEALRTGDEEILEHLIDPNVRNIVGDKQEHGRELLLTWLVKYKGVRWMIDHITIINGVIEIHGTLQVGDKEISIHIHVLVINGKVKSVEIREN” came in with a protease stability score of 1.47.

Turning to “DEETKLNHLAIRLWLQSVMTGNEELQTKLIDPHVRNHIDGREYHGREVFRENLRDLWEKYGVKHVELTHEHSQGEKVHLRFKVDVNGRELDHKIIAHKIDGRWLDHSIHFH”, the protease stability score turned out to be 0.611.

As for “DEETKRAEELMELWLHLLRTGDEELLSELMDPHVRLDINGVELHGREALLQWHHEHRRRIDHREIRVESRRIQGEKVEQHEDIIIHVNGVEFRHREFYEVVIIDGRFKELHIEHE”, the protease stability score stood at 0.546.

“DEETNLSKLVMEISLELLETGDEEHIHRFVDPHARTILFIDGREEQVHGREQASKWIMWTVKFLGVDHIEVEDTKIVNGVAHLNIRMEVGDKRLTSHFTSEKVNGKWLIKDIRIRID” registered a protease stability score of 1.94.

As to “DEETQNVRTILEEFVHDFETGDERLMHRYLDPNVRIDWNGRDYHGRETMFQMIRELSDKIKNIRIRIEHIDIINGVIIIHGDLHYNGKDVKTTLYFLKVNGRWLITRLEYK”, the protease stability score stood at 1.39.

The sequence “DEETRATKRFLDEVLEARATGDWRTLTRNMDPHYRLEIGEKEVHGMEEVSHMVTEEMVRLGIKHSDLKIKDSRFYNGVLHLDGRLILEVNGVRLESDVTLVELKVNGRWQIRFERWE” came in with a protease stability score of 1.08.

Sequence “DEETRDFDVAFMYFILFEKTGDERELLELLDPDARMVVGDKRRVGRESVLHFMREHLRTLGFKHVEDIELHDFKVYDGRIELDIRVRGRVNGKTHTLTYLMIAHKVDGRWFIHSLEVR” registered a protease stability score of 2.14.

In turn, “DEETRDIIHILKLLWDAIRTGDEEAIRRLLDPDMRIQVGDKEIHGREEFLKEISHWRYDLESFHIKHVDVINGVAIIHLHIVGRFHYDGRTYHDSYEEDVFIFKVNGRWHFHQIKYR” displayed a protease stability score of 1.84.

“DEETRDLHHALRIVLHILRTGDFSHLFEYADPHVKIDINGKEVHGMEQMHHEIERLYFELGVDNVTVQHKRIIVYDGRVLVHMISHIGDKWRDIIIIFLKVNGRWRLHSIEVK” displayed a protease stability score of 1.72.

“DEETREAKEAFDIIIKHIETGDEDLLSEMLDPNVRINQGEFRIHGREAVEEWLNYMLHHMRVHVRSEEVRVVGDKVESDFRVQINQGDKIYHHDTRLFLFKIDGRWFIESMEFH” registered a protease stability score of 1.36.

“DEETRHAREMMRIIAESLHTGDEDRLLEMIDPNVRVHVDGQDYHGREQWFQYLHEELRHLRIKHLTVTHHKVYDGRVELHLRVHGEVNGRHTEKTFIVIILKVDGRWKIESLRIE” gave a protease stability score of 2.15.

“DEETRMSEHAERLLIRSIRTGDFEEITRLADPHVRVHIGDKDIHGRESLSEVLEKTMRKFGVDNVDYKIEDSHTYDGRIDIRGRLEVNGVKREVRFHSLKIDGRWLLTHVEMD” returned a protease stability score of -0.04.

In the case of “DEEVAKKMMEAWMKALQNGNDEQMKKLYDPTVRWEDGNTEKQGLEVVVKLVQTVKKKGIEFQVRKAKVKGNQVEVHYDMKVGDDTVTFTVQFRAQGGRIQEVRVEISEEARKAVKKG”, the protease stability score was 1.32.

“DEEYDIAEEILHLLVELILTGDEHEILRYADPNVRLIIGDKDIHGMDWVSRFNMHLRLDDMKWELKRAHVYNGVIDNRGHLVMHGEIDGRHDTIKRETRILINKVNGRWNIREILIH” returned a protease stability score of 0.653.

As for “DEEYESMKIAVERLVQAHKTGDEDFLRELADPHVRVEIGDKRMHGWDRFDEWFKFVHHHLRIKDVDMKEFHIQGNKMHVRLELHGHYNGRDLILERHVILLKVNGRWILHVVQLG”, the protease stability score turned out to be 2.3.

As for “DEFEEAIKLVDDIRSFALLTGDEKELKHMADPNVKLDFNGVELVGMERVWKFFEEIRLVERHVHIKDRDVQGDKVRVDGRQDIEVQQGDKKSRMDIRLDIIIKKVDGRWIVHSLVLI”, the protease stability score was 0.77.

In turn, “DEFEKDFRFAIEEWLKVVRTGDEDRAHELMDPDVKLDIGDKRHHGREEMLHHVRRADVIHDYKIKDLKFQGNYITVQGEVDGQIGDKRIRTEVRVIILKIDGVWLWRQNYER” came in with a protease stability score of 0.907.

For “DEFEKTAEELLRRLVKNMKTGNEDMISHLLDPNARLEVGEFEYHGREQLVRFLVHLRVDHVDLHHVEVQGDKLILDTRTDGTFNGRRRNIRETIIIRKVNGKWIIESYHVE”, the protease stability score amounted to 1.46.

On to “DEFHELARHALKLFKDTMDTGDEHTLEHLVDPNVRLLVDGQEIHGREAMEEFWRRVPNLRLYFHDVRVIGDKIIVDGKIEYGDKEIDSRIYLRKINGRWRFESVELR”, for which the protease stability score came to 1.4.

For “DEFHHLLELFLKLLAEQSRTGDEDSFERLFDPNVRVDINGRELHGWEAYQETRDRLGIERFDLRRIHSHTVNVVNGQVHMDMRTDGVIGDKRIDRTIHIRTTKINGRWFFTHLEWE”, the protease stability score was found to be 0.578.
